Test results published in patent US20140275489A1 (Regeneron, published 2014).

T1: full-length human APLNR (amino acids 1-380 of accession number NP-005152.1) (human, UniProt P35414 1-380)
T1 sequence (looked up): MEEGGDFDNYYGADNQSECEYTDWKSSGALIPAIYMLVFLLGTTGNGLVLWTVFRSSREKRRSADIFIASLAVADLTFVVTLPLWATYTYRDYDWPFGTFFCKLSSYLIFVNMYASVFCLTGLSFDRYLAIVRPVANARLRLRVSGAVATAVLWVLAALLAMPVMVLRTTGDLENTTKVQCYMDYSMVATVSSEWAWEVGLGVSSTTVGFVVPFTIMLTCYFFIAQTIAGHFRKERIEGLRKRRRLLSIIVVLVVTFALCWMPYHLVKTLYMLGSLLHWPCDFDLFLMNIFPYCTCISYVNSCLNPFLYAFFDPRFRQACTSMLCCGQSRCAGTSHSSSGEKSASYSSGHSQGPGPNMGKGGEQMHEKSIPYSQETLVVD


Molecular target: T1, full-length human APLNR (amino acids …)
Assay: cell-based or functional assay

Row | EC50 (M), CRE assay (cAMP reporter) in HEK293/CRE-luc/hAPLNR cells [M] | Binder
1 | 4.38e-10 | PRLSHKGPMPF [Apelin-11]
2 | 1.14e-13 | PRLSHKGPMP [Apelin67-76]
3 | 1.47e-10 | QRPRLSHKGPMPFGGGGG [Apelin-13 + 5G]

The remaining lines, values behind:

Row | Binder | EC50 (M), CRE assay (cAMP reporter) in HEK293/CRE-luc/hAPLNR cells [M]
4 | RPRLSHKGPMP [Apelin66-76] | 5.19e-12
5 | PRLSHKGPM [Apelin67-75] | 3.74e-07
6 | RPRLSHKGPM [Apelin66-75] | 2.17e-12
